The values that follow come from the supplement of paper PMC9170038.

The test system of this series is MS2 coat protein. Kind of series: apparent KD of MS2 coat protein; designed switch direction (-1 OFF switch, 1 ON switch): -1; higher = weaker reporter binding. In a few lines: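 Three titration conditions were used: no input, 200 uM small-molecule ligand, and an oligonucleotide input. In each, SNAP-549-labelled MS2 coat protein was raised from 0.7 or 1.5 nM, doubling, to 3 µM over designed RNA switches transcribed on Illumina chips by stalled E. coli RNA polymerase. Curve fits of normalised cluster fluorescence gave values whose per-design median over clusters is the apparent KD.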

Setting [1] is: input ligand: microRNA oligo, concentration not stated.
Setting [2] is: Eterna round: R95, input ligand: microRNA oligo, concentration not stated.
The mark [3] stands for this setting: Eterna round: R95, input ligand: FMN 200 uM.
Where [4] appears, read: Eterna round: R95, input ligand: none.

Turning to “CACUGCAGGUUAGGAUAUGGACAACAACAUGAGGAUCACCCAUGUAUGUAUGAACAUGUUGAUCACCAGAAGGAACACAUCAGU [Exclusion NG 2 S2] (Eterna round: R96, puzzle: Exclusion NG 2)”, the “apparent KD of MS2 coat protein” value stood at 12.2 nM (input ligand: FMN 200 uM), 9.35 nM under setting [1] and 11.8 nM (input ligand: none).
Regarding “CAGAAGUGAGGAUAUAUAUGUAAGUUUGAUCCAACAAGUAUACAUGAGGAUCACCCAUGUAGAAGGUGCUUCCC [Eternabot (L2) Solution 45] (Eterna round: R97, puzzle: Exclusion 2)”, the “apparent KD of MS2 coat protein” value by setting is: (input ligand: FMN 200 uM) 57.2 nM; (input ligand: none) 44.6 nM.
As for “CAGCUGAAAGUGAGGAUAUCGACUGCCUCGGCAGUCGAGAAGGCACAUGAGGAUCACCCAUGUCUCAACAGCUG [BmEx4/1-A5] (Eterna round: R97, puzzle: Brourd's mod of Exclusion 4)”, the “apparent KD of MS2 coat protein” value by setting is: (input ligand: FMN 200 uM) 81.4 nM; (input ligand: none) 23 nM.
“CAGCUGUCAGGAUAUCGUGCAUACAACGAAAGUUCUAUGUGCGAGAAGGGACAUGAGGAUCACCCAUGUUUACG [Omei Ex4 A24] (Eterna round: R97, puzzle: Exclusion 4)”: the “apparent KD of MS2 coat protein” value was 48 nM (input ligand: FMN 200 uM) and 28.6 nM (input ligand: none).
With “CAGGAUAGAGGAUAUACAUAGAUACAGAUUCAUAUAAUCCUACAUGAGGAUCACCCAUGUAGAAGGCUAUCCUG [Fiskers Ex 2 - 25] (puzzle: Exclusion 2)”, the “apparent KD of MS2 coat protein” value under setting [2] was 14.5 nM.
As to “CAGGUGUGAGGAUAUGUGAUUAUGAUAGACCGAGUCUACCCACAGAAGGCACAUGAGGAUCACCCAUGUGAGUA [Eternabot (L1) Solution 75] (Eterna round: R97, puzzle: Exclusion 4)”, the “apparent KD of MS2 coat protein” value by setting is: (input ligand: FMN 200 uM) 122 nM; (input ligand: none) 46.6 nM.
As for “CAGGUGUUAGGAUAUCGGAGGUUGAGGCAGACGGGAAUAUUCGAGAAGGAACAUGAGGAUCACCCAUGUAGUAG [JR_Exclu4_Sub037] (puzzle: Exclusion 4)”, under setting [2], the “apparent KD of MS2 coat protein” value was 21.5 nM.
Turning to “CAGUACAGAGGAUAUACAUGAGGAUCACCCAUGUGUUCCAGCUAGGAGACUAGCAAGUGUAGAAGGCUGUACUG [Mat - Exclusion 3 - JL Mod - D8] (Eterna round: R97, puzzle: Exclusion 3)”, the “apparent KD of MS2 coat protein” value is, setting by setting: (input ligand: FMN 200 uM) 592 nM; (input ligand: none) 405 nM.
Regarding “CAGUACCUAGGAUAUACACGGCCACGUGAUACCAAGGAGCAACUUGAGGAUCACCCAAGUAGAAGGAGGUACUG [jl-ex2.4.42 ViennaUCT mod] (Eterna round: R97, puzzle: Exclusion 2)”, the “apparent KD of MS2 coat protein” value (input ligand: FMN 200 uM) is 3200 nM and the “apparent KD of MS2 coat protein” value (input ligand: none) is 198 nM.
As for “CAGUACGGAGGAUAUACAUGAGGAUCACCCAUGUGAGAGAUACUAGUGAGGUCGAUUAGUAGAAGGCUGUACUG [Mat X3R4 m6] (Eterna round: R97, puzzle: Exclusion 3)”, the “apparent KD of MS2 coat protein” value worked out at 501 nM (input ligand: FMN 200 uM) and 39.7 nM (input ligand: none).
In the case of “CAGUACUGAGGAUAUACAUGAGGAUCACCCAUGUGAGAGUUACUAGUGAGGUCGAUUAGUAGAAGGCAGUACUG [Mat X3R4 m29] (Eterna round: R97, puzzle: Exclusion 3)”, the “apparent KD of MS2 coat protein” value was determined as 215 nM (input ligand: FMN 200 uM) and 39.6 nM (input ligand: none).
For the sequence “CAGUACUGAGGAUAUACAUGAGGAUCACCCAUGUGUCUUCAAUUAGGAAACUAGUUAUGUAGAAGGCAGUACUG [Omei Ex3 Mod of Eli 4.27 v9] (Eterna round: R97, puzzle: Exclusion 3)”, the “apparent KD of MS2 coat protein” value runs as follows: (input ligand: FMN 200 uM) 770 nM; (input ligand: none) 62.2 nM.
Take “CAGUACUGAGGAUAUACAUGAGGAUCACCCAUGUGUCUUCUCCUAGGAAACUAGGUAUGUAGAAGGCAGUACUG [Omei Ex3 Mod of Eli 4.27 v1] (Eterna round: R97, puzzle: Exclusion 3)”: the “apparent KD of MS2 coat protein” value by setting is: (input ligand: FMN 200 uM) 1370 nM; (input ligand: none) 40 nM.
Regarding “CAGUACUGAGGAUAUACAUGAGGAUCACCCAUGUGUUCCAGCGAGGAAACUAGCAAAAGUAGAAGGCAGUACUG [salish99_ex3_r3_077] (Eterna round: R96, puzzle: Exclusion 3)”, the “apparent KD of MS2 coat protein” value (input ligand: FMN 200 uM) was 242 nM, the “apparent KD of MS2 coat protein” value under setting [1] was determined as 15.6 nM and the “apparent KD of MS2 coat protein” value (input ligand: none) was 18.5 nM.
As for “CAGUACUGAGGAUAUACAUGAGGAUCACCCAUGUGUUCCAGCGAGGAAACUAGCAAAAGUAGAAGGCAGUACUG [salish99_ex3_r3_077] (puzzle: Exclusion 3)”, the “apparent KD of MS2 coat protein” value runs as follows: under setting [3], 199 nM; under setting [2], 18.4 nM; under setting [4], 17.5 nM.
For “CAGUACUGAGGAUAUACAUGAGGAUCACCCAUGUGUUCCAGGUAGGAAACUAGCAAAAGUAGAAGGCAGUACUG [salish99_ex3_r3_078] (Eterna round: R96, puzzle: Exclusion 3)”, the “apparent KD of MS2 coat protein” value under setting [1] stood at 17.5 nM.
In the case of “CAGUACUGAGGAUAUACAUGAGGAUCACCCAUGUGUUCCAGGUAGGAAACUAGCAAAAGUAGAAGGCAGUACUG [salish99_ex3_r3_078] (puzzle: Exclusion 3)”, the “apparent KD of MS2 coat protein” value is, setting by setting: under setting [3], 99.7 nM; under setting [2], 20.2 nM; under setting [4], 20.4 nM.
“CAGUACUGAGGAUAUACAUGAGGAUCACCCAUGUGUUCCUGCUAGGAAACUAGCAAAGGUAGAAGGCAGUACUG [Salish 065 m3] (Eterna round: R97, puzzle: Exclusion 3)”: the “apparent KD of MS2 coat protein” value runs as follows: (input ligand: FMN 200 uM) 464 nM; (input ligand: none) 27.9 nM.
Consider “CAGUACUGAGGAUAUACAUGAGGAUCACCCAUGUGUUUUCUAUUAGGAAACUAGUUAUGUAGAAGGCAGUACUG [Omei Ex3 Mod of Eli 4.27 v11] (Eterna round: R97, puzzle: Exclusion 3)”, for which the “apparent KD of MS2 coat protein” value (input ligand: FMN 200 uM) turned out to be 304 nM and the “apparent KD of MS2 coat protein” value (input ligand: none) came to 40 nM.
With “CAGUCGAUAAGAUCAAUUAAUUAACAUGAGGAUCACCCAUGUGAGGAUAUCAGCUCGAUUAGAGCUGAGAAGGCACAACGACUG [ExNG3/17-A1] (Eterna round: R96, puzzle: Exclusion NG 3)”, the “apparent KD of MS2 coat protein” value is, setting by setting: (input ligand: FMN 200 uM) 232 nM; under setting [1], 31.3 nM; (input ligand: none) 46.8 nM.
Regarding “CAGUGACAUGAGGAUCACCCAUGUUAGGAUAUCCGCAAAGGGAGUAGGAUUCCCAUUUGGAGAAGGGACAGGUG [Eternabot (L1) Solution 95] (Eterna round: R97, puzzle: Exclusion 1)”, the “apparent KD of MS2 coat protein” value came out at 72.5 nM (input ligand: FMN 200 uM) and 52.6 nM (input ligand: none).
Consider “CAUAAUUUUCGGAAUAUGUACAUGAGGAUCACCCAUGUGACGAGUUACAUGAUUAACAAGCUUUUUGCUCGUCUUAU [Sensor v3 - Turn-off variant 1 - 12] (puzzle: Sensor v3, turn-off variant 1)”, for which the “apparent KD of MS2 coat protein” value under setting [3] came out at 118 nM, the “apparent KD of MS2 coat protein” value under setting [2] was determined as 31.9 nM and the “apparent KD of MS2 coat protein” value under setting [4] stood at 207 nM.
As for “CAUACACAUGAGGAUCACCCAUGUGAGGAUAUGCGUACGUUGUCCGUAGGCGACGUGCGCAGAAGGCGCGAGGU [JL-ex1-3.16 Eli mod] (puzzle: Exclusion 1)”, the “apparent KD of MS2 coat protein” value under setting [2] came out at 28.4 nM.
For “CAUCAGAUAGGAUAUACAGGCCCGUCUUUAUAUUGAUCCCGACAUGAGGAUCACCCAUGUAGAAGGAUCAGAUG [Mod 27 - Jieux - Exclusion 2] (Eterna round: R97, puzzle: Exclusion 2)”, the “apparent KD of MS2 coat protein” value reads like this: (input ligand: FMN 200 uM) 21.2 nM; (input ligand: none) 16.1 nM.
Turning to “CAUCUGUGAGGAUAUGGUGAGUAGUGCCUGAGCGCUGCUCACCAGAAGGCACAUGAGGAUCACCCAUGUAUGAC [JL-ex4-2.01 denovo] (Eterna round: R96, puzzle: Exclusion 4)”, the “apparent KD of MS2 coat protein” value was found to be 319 nM (input ligand: FMN 200 uM), 46.3 nM under setting [1] and 70 nM (input ligand: none).
For the sequence “CAUCUGUGAGGAUAUGGUGAGUAGUGCCUGAGCGCUGCUCACCAGAAGGCACAUGAGGAUCACCCAUGUAUGAC [JL-ex4-2.01 denovo] (puzzle: Exclusion 4)”, the “apparent KD of MS2 coat protein” value under setting [2] stood at 43.7 nM.
For “CAUGAUCUUCGGAUCAUGUACAUGAGGAUCACCCAUGUGACGAGUUGAUCCUCAUACAAGCUUUUUGCUCGUCUUAU [Sensor v3 - Turn-off variant 1 - 15] (puzzle: Sensor v3, turn-off variant 1)”, the “apparent KD of MS2 coat protein” value is, setting by setting: under setting [3], 26.8 nM; under setting [2], 16.7 nM; under setting [4], 24.4 nM.
As to “CAUGAUUGGGAAGGAUAUUGACCUAGUUAGCGCCGAGAAGGUCCCUUUCACAUGAGGAUCACCCAUGUGAGUCUGGUGUUCGAG [Ex NG1 #96] (Eterna round: R96, puzzle: Exclusion NG 1)”, the “apparent KD of MS2 coat protein” value by setting is: (input ligand: FMN 200 uM) 37.7 nM; under setting [1], 26.8 nM; (input ligand: none) 37.6 nM.
The corresponding values for “CAUGUUGACAGAGGAUAUGCAAUGUGAUUUAGGGUAGAAGGCUGAGACAUGAGGAUCACCCAUGUGGGUGCGUUCUAGCGACAA [Atmala] (Eterna round: R96, puzzle: Exclusion NG 1)” are 150 nM, 19.4 nM and 34 nM.
Take “CAUUAUUAUCGAGGAUAUCCUAUUGAAAUUCUGGGAGAAGGCGGACUCAACAUGAGGAUCACCCAUGUGAGACGGGUGCUAGGG [Ex NG1 #26] (Eterna round: R96, puzzle: Exclusion NG 1)”: the “apparent KD of MS2 coat protein” value under setting [1] was 19.6 nM.
With “CCAAACUGAGGAUAUACAUGAGGAUCACCCAUGUGCCCGCGGUCAUAUGUAGCCUAGUGUAGAAGGCAGAAAAC [Rearle] (Eterna round: R96, puzzle: Exclusion 3)”, the “apparent KD of MS2 coat protein” value was 24.9 nM (input ligand: FMN 200 uM), 41.8 nM under setting [1] and 50.9 nM (input ligand: none).
In the case of “CCAAACUGAGGAUAUACAUGAGGAUCACCCAUGUGCCCGCGGUCAUAUGUAGCCUAGUGUAGAAGGCAGAAAAC [Rearle] (puzzle: Exclusion 3)”, under setting [2], the “apparent KD of MS2 coat protein” value was 33 nM.
